From paper PMC8178886, “Recombinant laccase rPOXA 1B real-time, accelerated and molecular dynamics stability study” (BMC Biotechnology, 2021)

Substrate: CCn1c(=NN=c2sc3cc(S(=O)(=O)O)ccc3n2CC)sc2cc(S(=O)(=O)O)ccc21
Experiment: cells, lysate or membranes
Format: biochemical, Pleurotus ostreatus
Conditions: unpurified concentrate stored 12 months at 240.98 K (-32.55 °C), activity unchanged, 0.1 M citrate pH 3.0, 25 °C, ABTS 0.1-3 mM (all above the KM), air O2

B1: rPOXA 1B (Pleurotus ostreatus) (protein)
chain: SIGPRGTLNIANKVIQPDGFYRSTVLAGGSYPGPLIKGKTGDRFQINVVNKLADTSMPVDTSIHWHGLFVKGHNWADGPAMVTQCPIVPGHSFLYDFEVPDQAGTFWYHSHLGTQYCDGLRGPLVVYSKNDPHKRLYDVDDESTVLTVGDWYHAPSLSLTGVPHPDSTLFNGLGRSLNGPASPLYVMNVVKGKRYRIRLINTSCDSNYQFSIDGHTFTVIEADGENTQPLQVDQVQIFAGQRYSLVLNANQAVGNYWIRANPNSGDPGFENQMNSAILRYKGARSIDPTTPEQNATNPLHEYNLRPLIKKPAPGKPFPGGADHNINLNFAFDPATALFTANNHTFVPPTVPVLLQILSGTRDAHDLAPAGSIYDIKLGDVVEITMPALVFAGPHPIHLHGHTFAVVRSAGSSTYNYENPVRRDVVSIGDDPTDNVTIRFVADNAGPWFLHCHIDWHLDLGFAVVFAEGVNQTAAANPVPEAWNNLCPIYNSSNPSKLLMGTNAIGRLPAPLKA
notes: recombinant, made in Pichia pastoris X33/pGAPZalphaA-LaccPost-Stop clone 1 (10 L bioreactor); unpurified enzyme concentrate without preservatives
**Q.** How did the Km turn out when B1 was run?
**A.** Its Km is 41.4 ± 4.6 µM.

**Q.** What about the Vmax of the same protein?
**A.** The Vmax was 10.2 µM/min.
